Results on ten molecules are retold here after patent US20060193771A1 (US Dept. of Health and Human Services, published 2006).

The target of test [1] is T1, CD30-Fc (human).
T1 construct: also called extracellular domain of CD30 fused with human IgG Fc
T1 chain: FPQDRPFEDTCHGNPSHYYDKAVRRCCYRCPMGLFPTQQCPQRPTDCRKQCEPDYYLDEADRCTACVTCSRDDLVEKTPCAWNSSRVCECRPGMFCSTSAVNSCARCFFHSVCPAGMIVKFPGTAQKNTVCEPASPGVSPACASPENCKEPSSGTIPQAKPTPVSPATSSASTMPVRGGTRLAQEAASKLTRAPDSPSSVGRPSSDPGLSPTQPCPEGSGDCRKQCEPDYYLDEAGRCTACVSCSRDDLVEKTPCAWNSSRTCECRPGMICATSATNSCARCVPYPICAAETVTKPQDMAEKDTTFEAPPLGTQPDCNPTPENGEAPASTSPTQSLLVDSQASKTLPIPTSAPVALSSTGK
Description: affinity of the MAb; ELISA using CD30-Fc. (In general: ELISA stands for enzyme-linked immunosorbent assay.)
Description: (§1) In one type of ELISA (CD30-Fc ELISA), microtiter plates were coated with 25 ng/well of CD30-Fc. Culture supernatants of hybridoma were added to the coated wells, and bound MAbs were detected with HRP-labeled rat anti-mouse kappa chain monoclonal antibody. A different format of ELISA. Ig-trap ELISA, was also carried out. MAbs were captured by anti-mouse IgG coated on the plates, and then reacted with various concentrations of CD30-Fc in solution. The bound CD30-Fc was detected with HRP-labeled goat anti-human Fc antibody.
(§2) Determination of affinity: Each MAb was titered in the CD30-Fc ELISA described above and an appropriate dilution for each MAb was selected from the liner range of the titration curves. […] The free MAb concentration in each equilibrium reaction was measured by the same ELISA using standard curves. No re-equilibrium occurred during the ELISA because of the small amounts of coated CD30-Fc and the short time of incubation. The CD30-Fc concentration giving half free MAb was the Kd.

Test [2] addresses T2, human CD30, native, expressed on cells (human).
T2 construct: also called native CD30; CD30 on L540, L428, A431/CD30, Karpas299, SUDHL-1 and other CD30-positive cells
T2 chain: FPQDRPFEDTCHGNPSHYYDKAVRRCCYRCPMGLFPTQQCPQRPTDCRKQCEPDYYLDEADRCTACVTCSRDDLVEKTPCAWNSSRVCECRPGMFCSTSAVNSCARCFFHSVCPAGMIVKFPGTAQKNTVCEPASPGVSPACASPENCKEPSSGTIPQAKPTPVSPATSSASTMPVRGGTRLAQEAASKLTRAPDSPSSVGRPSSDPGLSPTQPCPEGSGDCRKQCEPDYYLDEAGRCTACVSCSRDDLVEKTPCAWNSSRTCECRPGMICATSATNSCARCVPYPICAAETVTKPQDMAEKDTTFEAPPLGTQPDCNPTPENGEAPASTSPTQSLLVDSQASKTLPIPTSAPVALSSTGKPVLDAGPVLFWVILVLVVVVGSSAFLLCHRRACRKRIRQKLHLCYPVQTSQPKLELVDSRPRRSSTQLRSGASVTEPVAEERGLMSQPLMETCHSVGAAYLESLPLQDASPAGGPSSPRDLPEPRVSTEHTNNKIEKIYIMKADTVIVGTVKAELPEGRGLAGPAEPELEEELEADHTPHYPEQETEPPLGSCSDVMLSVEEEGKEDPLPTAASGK
In words: competitive FACS on L540 cells, unlabeled MAb 2.5 µg/ml; competitor: biotin-T24.
Description: (§3) These MAbs were further characterized for their topographical epitopes by a competitive binding assay using FACS analysis. […] Some of the MAbs were biotinylated as the indicators and incubated with L540 cells in the presence of various concentrations of unlabeled MAbs as the competitors.

The target in test [3] is T2, human CD30, native, expressed on cells. In words: competitive FACS on L540 cells, unlabeled MAb 2.5 µg/ml; competitor: biotin-T25.
Description: as §3
For test [4] the target is unchanged. Description: competitive FACS on L540 cells, unlabeled MAb 2.5 µg/ml; competitor: biotin-T14.
Description: as §3
Test [5] has the same target. Description: FACS, L540 cells, MAb 5 µg/ml, control HeFi-I. For orientation: Flow cytometry measures light scatter and fluorescence of single cells or particles in a stream.
Description: (§4) FACS Analysis. FACS analysis was performed to measure the binding of the MAbs or immunotoxins to native CD30 expressed on various cell lines. […] After incubation for 1 h at 4° C., the cells were washed twice with the same buffer and incubated with FITC-labeled goat mouse IgG (BioSource). After washing, the cells were suspended in 1 ml of the buffer, and the fluorescence associated with the live cells was measured using a FACS Calibur flow cytometer (Beckman Coulter, Fullerton, Calif.).
(§5) The binding activity of the MAbs to native CD30 on cells was measured.
Test [6] shares this target. In words: FACS, L428 cells, MAb 5 µg/ml, control HeFi-I.
Description: as §4, §5
Test [7] has the same target. In words: competitive FACS on L540 cells, unlabeled MAb 2.5 µg/ml; competitor: biotin-HRS-4.
Description: as §3
Test [8] deals with T3, recombinant soluble CD30 (sCD30) produced in E. coli (human).
T3 construct: also called soluble CD30 made in E. coli; extracellular domain of CD30 with His-tag
T3 chain: T1 chain
Description: indirect ELISA, sCD30 coated.
Description: (§6) ELISA. The binding of anti-CD30 MAbs to sCD30 and CD30-Fc was assayed by indirect ELISAs. Microtiter plates (Costar, Cambridge, Mass.) were coated with 20 ng/well of sCD30 or CD30-Fc in PBS overnight at 4° C. After blocking with 0.5% of BSA in PBS, hybridoma supernatants or purified MAbs were added to the coated wells and incubated for 2 h at room temperature. The bound MAbs were detected with alkaline phosphatase (ALP)-labeled anti-mouse IgG (BioSource, Camarillo, Calif.) and p-nitrophenyl phosphate as the substrate.

The target in test [9] is T1, CD30-Fc. Description: indirect ELISA, CD30-Fc coated.
Description: as §6
Test [10] has as its target T1, CD30-Fc. In words: ELISA using CD30-Fc (equilibrium in solution).
Description: as §1, §2
The target in test [11] is T2, human CD30, native, expressed on cells. In words: competitive FACS on L540 cells, unlabeled MAb 2.5 µg/ml; competitor: biotin-T6.
Description: as §4, §3
Test [12] has the same target. In words: competitive FACS on L540 cells, unlabeled MAb 2.5 µg/ml; competitor: biotin-HeFi-I.
Description: as §3

Substitutions are numbered along the chain they refer to.

B1: T201 MAb (antibody, V domains shown)
VH: QVQLKESGPGLVAPSQSLSITCTVSGFSLIDYGVSWVRQPPGKGLEWLGMIWGDGNTDYNSGLKSRLSISKDNSKSQVFLKVNSLQTDDTARYYCARPSTGTLFAYWGQGTLVTVSA
VL: EIVLTQSPTTMAASPGERITFTCSASSGISSIYLHWYQQKPGFSPKLLIYRTSNLASGVPPRFSGSGSGTSYSLTIGTMEAEDVATYYCQQGSSIPLTFGAGTKLELKR
As usually defined, the Kd is the equilibrium constant for the complex coming apart. A lower Kd goes with higher affinity. Take B1: the equilibrium dissociation constant (Kd) with CD30-Fc [1] was found to be 8.3 nM.

B2: T25 MAb (antibody, V domains shown)
VH: QVTLKESGPGILQPSQTLSLTCSFSGFSLNTSGVGVGWIRQPSGKGLEWLAHIWWDDDERYNPVLKSRLTISKDTSSNQVFLKIANVDTADSATYYCVRSMVAWFPYWGRGTLVTVSA
VL: DIVMSQSPSSLAVSVGEKFTVNCKSSQSLLYSSNQKNFLAWYQQKPGQSPKLLIYWASTRESGVPDRFIGSGSGTDFTLTISSVKAEDLAVYYCQQHYRYPWTFGGGTKLEIKR
Regarding B2, the “inhibition of the binding of biotin-MAb (%)” value (“inhibition … (%)” below) is 0% in [2]; 79.8% in [3]; -1.3% in [4]; 0% in test [7]; 1.5% in [11]; 0% in test [12]. The “relative reactivity in FACS (% of control)” value in test [5] was 27.8 % of control; in [6], 80 % of control. For the same molecule, the results for the “titer in ELISA” value (in test [8]; with CD30-Fc [9]) were 135 mL/µg and 50 mL/µg, respectively. Also, the equilibrium dissociation constant (Kd) with CD30-Fc [10] and with CD30-Fc [1] was 6.4 nM throughout.

B3: T6 MAb (antibody, V domains shown)
VH: QVQLKESGPGLVTPSQSLSITCTVSGFSLSKYSIHWVRQPPGRGLEWLGMIWGVENTDYNSALKSRLSISKDNSKSQVFLKMNSLQSDDTAMYYCARKDLGLYGMNYWGQGISVTVSA
VL: DIVMTQSQKFMSTSVGDRVSVTCKASQNVGTNVAWYQQKPGQSPKALFYSASYRYSGVPDRFIGSGSGTVFTLTISNVQSEDLAEYFCQQYNTYPLTFGSGTKLEIER
For B3, the “inhibition … (%)” value turned out to be 3.9% in [2]; 25% in [3]; 108% in test [4]; 97.9% in test [7]; 100% in test [11]; 0% in test [12]. In addition, the “relative reactivity in FACS (% of control)” value in test [5] is 111 % of control; in test [6], 140 % of control. Further, the “titer in ELISA” value came out at 74.1 mL/µg in [8] and 40 mL/µg with CD30-Fc [9]. For the same molecule, the Kd with CD30-Fc [10] and with CD30-Fc [1] was 13 nM throughout.

B4: T105 MAb (antibody, V domains shown)
VH: QVTLKESGPGILQPSQTLSLTCSFSGFSLSTSGMGVSWIRQPSGKDLEWLAHIYWDDDKRYNPSLKSRLTISKDTSSNQVFLKITSVDTADTATYYCARRADGLYFYLDVWGAGTTVTVSS
VL: B3 VL with G30N, K45E, F48I, I63T, V70D, T93S, E107K
B4: the dissociation constant Kd in the test with CD30-Fc [10] and with CD30-Fc [1] was 4.2 nM in each case.

B5: T427 MAb (antibody, V domains shown)
VH: QVQLQQPGTELVRPGASVKLSCKASGFSFTSYWMNWVKQRPGQGLEWIGMIHPSDSETRLNQKFKDRATLTVDKSSSTAYMQLSSPTSEDSAVYYCASEMDYYFAMDYWGQGTSVTVSS
VL: DIVLTQSPTSLAVSLGQRATISCRASESVDSYGNSFMHWFQQKPGQPPKLLIYRASNLESGIPARFSGSGSWTDFTLTINPVEADDVATYYCQQSNEDPRTFGGGTKLEIKR
The molecule B5 had a Kd in the test with CD30-Fc [1] of 0.9 nM.

B6: T405 MAb (antibody, V domains shown)
VH: QVQLQQIGAELVRPGASVKLSCKASGYTFNNYWINWVKQRPGQGLEWIGNIYPSDSRSNYNQKFKDKATLTVDKPSSTAYMQLSSPTSEDSAVYYCTLGSYWGQGTLVTVSA
VL: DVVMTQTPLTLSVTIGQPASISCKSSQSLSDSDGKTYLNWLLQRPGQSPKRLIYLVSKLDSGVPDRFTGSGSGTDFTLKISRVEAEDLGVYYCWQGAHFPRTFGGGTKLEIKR
B6: the Kd in the test with CD30-Fc [1] is 5.7 nM.

B7: T408 MAb (antibody, V domains shown)
VH: B6 VH with I7P, N30T, N31S, R57Y, P75S
VL: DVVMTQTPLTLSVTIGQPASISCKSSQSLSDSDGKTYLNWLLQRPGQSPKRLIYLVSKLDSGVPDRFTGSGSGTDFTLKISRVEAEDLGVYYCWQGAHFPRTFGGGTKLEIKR
As for B7, binding with CD30-Fc [1] was characterised by a dissociation constant (Kd) of 6.4 nM.

B8: T24 MAb (antibody, V domains shown)
VH: QVQLQQPGAELVRPGASVKLSCKASGYSFTSYWIDWVKQRPGQGLEWIGNIYPSNAYTNYNQKFKDKATLTVDKSSSTAYMQLSSPTSEDSAVYYCTSVLDYFYAMDYWGQGTSVTVSS
VL: DIQMTQTTSSLSASLGDRVTISCRASQDISNYLNWYQQKPDGTVKLLIYYTSRLHSGVPSRFSGSGSGTDYSLTISNLEQEDIATYFCQQVNTLPRTFGGGTKLEIKR
Turning to B8, the “inhibition … (%)” value in test [2] amounted to 82.8%; in test [3] it was 97.8%; in [4] it was 16.1%; in test [7] it was 52.2%; in [11], 1.5%; in test [12], 79.8%. Further, the “relative reactivity in FACS (% of control)” value in test [5] was 117 % of control; in test [6], 160 % of control. Moreover, the “titer in ELISA” value in [8] came out at 102 mL/µg; in the test with CD30-Fc [9], 179 mL/µg. For the same molecule, the Kd with CD30-Fc [10] and with CD30-Fc [1] was 2.2 nM in each case.

B9: T13 MAb (antibody, V domains shown)
VH: QVQLQQSGAELAKPGASVKMSCKASGYTFTTYWMHWVKQRPGQGLEWIGYINPSTGYTDYNEKFKDKATLTADKSSSTAYMQLSSLTSEDSAVYYCVRRGSYDGNPFAYWGQGTLVSVSA
VL: DIVMTQSHKFMSTSVGDRVTITCKASQDVSTAVAWYQQKPGHSPKLLIYWASTRHTGVPDRFTGSGSGTDYTLTISSVQVEDLALYYCQQHYSTPFTFGSGTKLEIKR
Regarding B9, the “inhibition … (%)” value came out at 40.1% in [2]; 26.7% in test [3]; 108% in test [4]; 82.6% in [7]; 87.4% in test [11]; 0% in test [12]. The “relative reactivity in FACS (% of control)” value in test [5] is 111 % of control; in test [6] it was 180 % of control. Moreover, the “titer in ELISA” value in test [8] turned out to be 87.7 mL/µg; with CD30-Fc [9] it was 91.2 mL/µg. Moreover, the dissociation constant Kd with CD30-Fc [10] and in the test with CD30-Fc [1] was 3.1 nM throughout.

B10: T420 MAb (antibody, V domains shown)
VH: QVQLQQSGAELAKPGASVKMSCKASGYTFTSYWMHWVKQRPGQDLEWIGYINPSTDYTDYNQKFKDKATLTADKSSSTAYMQLSSLTSEDSAVYYCATRHYGSSYGFAYWGQGTLVTVSA
VL: B9 VL with T20S, H42Q, T72S, V80A, L85V, S93R
Take B10: the Kd with CD30-Fc [10] and with CD30-Fc [1] was 1.9 nM in each case.
